Measurements: publication PMC5993284, “Peptide inhibitors of the anaphase promoting-complex that cause sensitivity to microtubule poison” (PLoS ONE, 2018)
“Also recorded” adds a separate entry of the source. Ends that are not written are not given here. * marks the point of attachment. Biotin = O=C1N[C@H]2[C@H](CS[C@H]2CCCCC(=O)*)N1

B1: Cdc20-CB (I147A, P148A): control mutant with mutations in two residues within the C-box (protein, UniProt P26309 1-610, looked up, variant I147A P148A)
APC/C activator protein CDC20: MPESSRDKGNAAISGNRSVLSIASPTKLNILSSDWSRNQGKVSKNSLKRSSSLNIRNSKRPSLQASANSIYSRPKITIGAPPLIRRDSSFFKDEFDAKKDKATFSAYSSRSYPTIGSESVVSQTSLSQPTTSREVDEQFTVAADRYAAILQGASQNKVDPETLHEALPPPNASPISHLRAQTKIVFKQNVAEACGLDMNKRILQYMPEPPKCSSLRQKSYIMKKRTHYSYQQEQKIPDLIKLRKINTNPERILDAPGFQDDFYLNLLSWSKKNVLAIALDTALYLWNATTGDVSLLTDFENTTICSVTWSDDDCHISIGKEDGNTEIWDVETMSLIRTMRSGLGVRIGSLSWLDTLIATGSRSGEIQINDVRIKQHIVSTWAEHTGEVCGLSYKSDGLQLASGGNDNTVMIWDTRTSLPQFSKKTHTAAVKALSWCPYSPNILASGGGQTDKHIHFWNSITGARVGSINTGSQVSSLHWGQSHTSTNGGMMNKEIVATGGNPENAISVYNYETKFKVAEVVHAHEARICCSQLSPDGTTLATVGGDENLKFYKIFDPRCTGRSREDGLMDGMLGLIGKEGCRTNDKENRSKNSSEIHTRRPSSTSQYLIR
B2: biotinylated-PQ65: PQ65 containing an N-terminal biotin (peptide, UniProt P26309 169-232, looked up, fragment)
chain: Biotin-PPNASPISHLRAQTKIVFKQNVAEACGLDMNKRILQYMPEPPKCSSLRQKSYIMKKRTHYSYQQ

What was measured:
APC/C [1] = experiment: Biotinylated peptide pull-down of purified APC/C, Western blot; format: binding, Saccharomyces cerevisiae; settings: 20 μM biotinylated peptide, purified yeast APC/C, 1 h at 4 °C, streptavidin/Avidin beads, n = 3
Method: For APC/C purification, the APC/C which contain Cdc16-TAP-tag was isolated from 2 mL arrested yeast lysate by 120 μL IgG sepharose 6 Fast Flow beads (GE Healthcare Life Sciences) and incubate for 2 h at 4 °C on a rotating wheel. Beads were collected washed with 5 mL of APC/C wash buffer (200 mM Hepes pH8.0, 150 mM NaCl, 10% glycerol). Beads were resuspended in 150 μL of APC/C wash buffer contain 17.6 units of AcTEV protease (Invitrogen, Carlsbad, CA) at 4°C for 3 h with pipetting every 20 minutes. The purified APC/C was collected in the flow-through.
For APC/C binding assays, 20 μM biotinylated peptides or 20 μM peptides only as a negative control were incubated with purified APC/C and 100 μL APC/C wash buffer which contains phosphatase inhibitors (200 mM Hepes pH 8.0, 150 mM NaCl, 10% glycerol, 10 mM NaF, 1 mM NaVO4, 5 mM Na-pyrophosphate, 10 mM 2-glycerol phosphate) for 1 h at 4 °C. The mixtures were applied to 120 μL streptavidin beads (Dynabeads MyOne Streptavidin T1, Invitrogen) for 30 min at 4 °C with gentle pipetting every 10 min. Beads were washed with 1 mL of PBST buffer (Phosphate buffer saline and 0.1% Tween 20) three times SDS-PAGE protein sample was added directly. For APC/C binding competition experiments, the biotinylated peptide and 10-fold excess non-biotinylated peptides were added to purified APC/C at same time.
Free D-biotin in 10% DMSO was used for the control binding assays. For pre-coating APC/C with biotin, a modified APC/C purification was performed. 2 mL yeast lysate was incubated with 120 μL IgG Sepharose beads and additional 20.4 μM free biotin or non-biotin solvent as a positive control was added and samples were incubated for 2 h at 4 °C on a rotating wheel. Purified pre-coated APC/C was then removed from the IgG Sepharose following the standard purification procedure. 20 μM biotinylated peptides or 20 μM peptides as a negative control were incubated with pre-coated APC/C and 100 μL APC/C wash buffer which contain phosphatase inhibitors for 1 h at 4 °C. In addition, 20 μM biotinylated peptide was added and incubated with pre-coated APC/C in a non-biotin containing solvent as positive control. Pre-coated APC/C binding procedures were same as above. For pre-coating streptavidin beads with biotin, streptavidin beads were washed in the presence of 10.2 nmol/mL D-biotin in PBST buffer or non-biotin solvent as a positive control before use. Pre-coated streptavidin beads were incubated with purified APC/C-peptide complexes with an extra […] biotin for 30 minutes with gentle pipetting every 10 min at 4 °C.
Proteins were separated in SDS-PAGE gels and then were transferred to PVDF membrane. Blocking was performed by incubating samples in 20 mL PBST with 5% milk at 4 °C. Rabbit anti-tap (Thermo, CAB1001) was used as primary antibodies at a 1:1000 dilution and incubated for 2 hours at RT. Anti-rabbit HRP (Jackson, USA) was then used as secondary antibody at 1:5000 dilution and incubate for 1 hr at RT. Chemiluminescence signals were detected using an ImageQuant LAS 4000 (GE Healthcare Bio-Sciences, USA). For cell cycle timing Western blots anti-MYC and anti-Actin antibodies were employed (ABCAM, UK).

APC/C^Cdc20 = target: T1, APC/C^Cdc20 (Saccharomyces cerevisiae, UniProt P16522+P53886); experiment: biochemical; format: biochemical; settings: 220 μM peptide; 35S-Pds1 substrate; time course 0-60 minutes; vs buffer only; n = 3
T1 construct: constructed within full-length Cdc20 by site-directed mutagenesis for analysis in vitro in the APC/C^Cdc20 assay; The APC/C was purified for enzyme assays from 1 mL of TAP-tagged Cdc16 yeast extract (SCSY51); made in house; host or cells: Cdc20: in vitro transcription/translation in rabbit reticulocyte lysate, used unpurified; APC/C: S. cerevisiae strain SCSY51 (Cdc16-TAP) extract, captured on IgG magnetic beads
Method: Full-length, radio-labeled protein purifications were preformed as previously described. ^35S-Pds1 was prepared in a 500 μL IVT/T (In Vitro Transcription/Translation) reaction (Promega, USA), which contained 400 μL rabbit reticulocyte lysate, 20 μL of L-^35S-methionine (PerkinElmer, USA), 10 μg of plasmid DNA, and the remaining volume as nuclease-free ddH2O as recommended by the manufacturer. The reaction mixture was incubated for 2 hours at room temperature and gently mixed every 30 minutes. The reaction was added to pre-equilibrated IgG Sepharose beads (GE Healthcare, USA) in Bio-spin disposable chromatography columns (Bio-Rad, USA) for binding for 2 hours at room temperature. To ensure efficient binding, the beads were re-suspended several times every 30 minutes. After binding, the beads were washed with 5 mL wash buffer, containing 200 mM 4-(2-hydroxyethyl)-1-piperazineethanesulfonic acid (HEPES) at pH 8.0, 150 mM NaCl, 10% (v/v) glycerol, and 1 mM dithiothreitol (DTT). The ^35S-Pds1 was cleaved from the beads using TEV (Tobacco Etch Virus) protease in 1x TEV buffer (Invitrogen, USA) for 2 hours at room temperature, and the mixture was re-suspended several times every 30 minutes to promote efficient cleavage. The elution was collected and concentrated by employing an Amicon Ultra filter column (Millipore, Ireland). The concentrated ^35S-Pds1 was collected in a new tube, and stored at -20 °C.
(§1) The production of Cdc20 or Cdh1 was prepared by IVT/T reactions, where 16 μL of rabbit reticulocyte lysate, 20 μM L-methionine, 0.4 μg of plasmid DNA, and a volume of nuclease-free ddH2O for a total volume of 20 μL. This freshly synthesized Cdc20 or Cdh1 protein was used directly in all APC/C assays after a 1-hour synthesis reaction at room temperature. The APC/C was purified for enzyme assays from 1 mL of TAP-tagged Cdc16 yeast extract (SCSY51) where extract was mixed with 50 μL 50:50 slurry magnetic beads (Invitrogen, Norway) for 2 hours at 4 °C. After incubation, the beads were washed with 3 mL APC/C wash buffer (200 mM of HEPES, 150 mM of NaCl and 10% (v/v) of glycerol). APC/C bound to IgG magnetic beads was used directly in the enzyme assays.
(§2) APC/C assays were performed by adding the reaction contents in following order: 4.3 μL of QAH buffer, 20 μL of rabbit reticulocyte lysate containing Cdc20 or Cdh1 with or without an additional volume of recombinant checkpoint protein(s) or inhibitor peptides, 2.4 μL ubiquitin aldehyde (Boston Biochem, USA), APC/C, 16 μL pre-charged E1/E2/ATP/ubiquitin mix, and 13.3 μL of ^35S-Pds1 with QAH buffer (20 mM HEPES at pH 8.0, 100 mM NaCl, and 1 mM MgCl2). The E1/E2/ATP/ubiquitin mix were pre-charged by mixing 1 μL of E1 (Boston Biochem, USA), 1 μL of E2 (Boston Biochem, USA), 14.4 μL of ATP, 14.4 μL of […] (Boston Biochem, USA), and 17.2 μL of QAH buffer and incubated for 15 minutes at room temperature. Approximately 15 μL of samples were taken out at each time point, and the reaction was stopped by the addition of 2x protein sample buffer (125 mM Tris-HCl pH 6.8, 4% SDS, 20% glycerol, and 0.002% bromophenol blue, with 10% (final v/v) 2-mercaptoethanol added in fresh directly before use).
For inhibitor titration and time-course experiments, recombinant Bub3, Mad2, Mad3, and the Mad3-Bub3 complex were expressed and purified as previously described. […] For inhibition of APC/C the co-factor Cdc20 or Cdh1 was made fresh by IVT/T, and pure recombinant checkpoint proteins or inhibitor peptides were added to the IVT/T mixture and incubated for an additional hour at room temperature. In titrations, a dilution series of the checkpoint protein(s) were made before incubation with the Cdc20 co-factor. SDS-PAGE was performed using stand protocols (BioRad, USA).

APC/C [2] = experiment: APC/C activity promoted by mutant Cdc20 alleles (Pds1 remaining); format: biochemical, Saccharomyces cerevisiae
Method: as §1, §2
For APC/C activity assays dried-gels were exposed on a phosphor screen cassette to detect radio-labeled protein. The phosphor screen was scanned by a Typhoon phosphor-imager (GE Healthcare Bio-Sciences, USA), and radio-labeled protein bands in gels were quantified by employing the ImageQuant software (GE Healthcare Bio-Sciences, USA) according to the manufacturer’s protocols. Data were expressed as mean ± standard deviation, and was analyzed using Student’s t-test. Graphs were created using Kaliedograph 4.0 (Synergy Software, USA) and estimates of best-fit curves of a 4-parameter Hill equation were generated to obtain estimates for the median inhibitory concentrations (IC50) and Hill coefficients (Hc) using IgorPro 6.01 (Wavemetrics, USA).
By sequence alignment and amino acid homology alone, the budding yeast KILR-motif may be defined as 201-RILQ-204 (Fig 1A). However, the next residue, Tyrosine Y205 had previously been isolated in a genetic screen for spindle checkpoint by-pass alleles of Cdc20 [21], indicating this Y205 residue may be a target of the spindle checkpoint inhibition, and thus might also be a functional KILR-motif residue that contributes to APC/C activation. To clarify this possibility, we took the initial step to characterize several of the previously isolated spindle checkpoint by-pass mutant alleles of Cdc20 [21], and also Cdc20 mutants in the two highly conserved residues within the Mad2-binding motif, the aspartic acid at D197 of unknown function and the highly conserved Leucine L203 within the KILR-motif based on sequence alignment and homology. […]

Row | Molecule | binding to APC/C (in words) (APC/C [1]) | inhibition of APC/C^Cdc20 activity (in words) (APC/C^Cdc20) | ability of mutant Cdc20 to promote APC/C activity (in words) (APC/C [2]; vs wild type Cdc20, n = 3) | ability of mutant Cdc20 to promote APC/C activity (in words) (APC/C [2]; vs wild type Cdc20, n = 3, listed as Cdc20-CB)
1 | DK27: defined Mad2-binding motif peptide DK27 (Cdc20 197–223) (Biotin-DMNKRILQYMPEPPKCSSLRQKSYIMK) | retained the ability to bind with the APC/C; also recorded: displayed the ability to bind APC/C similar to the control peptide DQ36 | displayed a diminished ability to inhibit APC/C^Cdc20 although a significant difference with the buffer only control was still observed | – | –
2 | PS46: N-terminal 46 amino acid peptide called PS46 (Cdc20 167–213) (LPPPNASPISHLRAQTKIVFKQNVAEACGLDMNKRILQYMPEPPKCS; UniProt P26309 167-213, looked up, fragment) | able to bind to the APC/C directly, although consistently weaker binding was observed relative to DQ36; also recorded: consistently observed to have weaker APC/C binding activity relative to wild type DQ36 | observed to inhibit APC/C^Cdc20 | – | –
3 | SQ19: C-terminal 19 amino acids, SQ19 (Cdc20 213–232) peptide (SSLRQKSYIMKKRTHYSYQQ; UniProt P26309 213-232, looked up, fragment) | displayed the ability to bind APC/C similar to the control peptide DQ36 | displayed a low level of inhibitory activity | – | –
4 | biotinylated-DQ36: DQ36 containing an N-terminal biotin (Biotin-DMNKRILQYMPEPPKCSSLRQKSYIMKKRTHYSYQQ) | able to pull-down purified APC/C | – | – | –
5 | B1 | – | – | displayed decreased APC/C activity; also recorded: consistently displayed a decrease in APC activity | had no APC/C activity
6 | B2 | able to pull-down purified APC/C | – | – | –
